{"source": "paper PMC11440508", "about": "“Dually Labeled Neurotensin NTS1R Ligands for Probing Radiochemical and Fluorescence-Based Binding Assays” (Journal of Medicinal Chemistry, 2024)", "key": {"NTS1R (Homo sapiens) [1]": {"molecular_target": "NTS1R (Homo sapiens) (UniProt P30989)", "sequence (P30989 whole entry)": "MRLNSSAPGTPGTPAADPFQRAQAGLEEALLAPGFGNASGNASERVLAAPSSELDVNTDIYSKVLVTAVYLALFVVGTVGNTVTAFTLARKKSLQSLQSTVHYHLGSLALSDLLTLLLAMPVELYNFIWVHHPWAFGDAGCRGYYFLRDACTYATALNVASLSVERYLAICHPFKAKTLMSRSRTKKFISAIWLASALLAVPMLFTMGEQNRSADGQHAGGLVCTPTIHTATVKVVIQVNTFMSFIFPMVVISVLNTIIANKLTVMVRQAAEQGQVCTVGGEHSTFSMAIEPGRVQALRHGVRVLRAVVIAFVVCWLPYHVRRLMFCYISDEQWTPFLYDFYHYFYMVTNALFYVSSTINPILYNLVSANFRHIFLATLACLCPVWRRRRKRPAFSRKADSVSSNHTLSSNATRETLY", "details": "cited from earlier work"}, "NTS1R (Homo sapiens) [2]": {"molecular_target": "NTS1R (Homo sapiens) (UniProt P30989)", "assay": "radioligand competition binding", "details": "cited from earlier work"}, "[3]": {"molecular_target": "neurotensin NT(8-13) 8-13 (Homo sapiens) (UniProt P30990)", "sequence (P30990 whole entry, looked up, tested part not stated)": "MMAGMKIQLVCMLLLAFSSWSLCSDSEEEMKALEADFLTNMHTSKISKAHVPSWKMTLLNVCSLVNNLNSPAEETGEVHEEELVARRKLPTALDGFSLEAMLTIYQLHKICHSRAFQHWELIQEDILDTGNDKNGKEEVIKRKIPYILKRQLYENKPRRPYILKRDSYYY", "assay": "radioligand competition binding", "details": "cited from earlier work"}, "[4]": {"molecular_target": "neurotensin NT(8-13) 8-13 (Homo sapiens) (UniProt P30990)", "details": "cited from earlier work"}, "[5]": {"molecular_target": "human neurotensin receptor type 2 (hNTS2R) in homogenates of HEK293T cells (human) (UniProt O95665)", "sequence (O95665 whole entry)": "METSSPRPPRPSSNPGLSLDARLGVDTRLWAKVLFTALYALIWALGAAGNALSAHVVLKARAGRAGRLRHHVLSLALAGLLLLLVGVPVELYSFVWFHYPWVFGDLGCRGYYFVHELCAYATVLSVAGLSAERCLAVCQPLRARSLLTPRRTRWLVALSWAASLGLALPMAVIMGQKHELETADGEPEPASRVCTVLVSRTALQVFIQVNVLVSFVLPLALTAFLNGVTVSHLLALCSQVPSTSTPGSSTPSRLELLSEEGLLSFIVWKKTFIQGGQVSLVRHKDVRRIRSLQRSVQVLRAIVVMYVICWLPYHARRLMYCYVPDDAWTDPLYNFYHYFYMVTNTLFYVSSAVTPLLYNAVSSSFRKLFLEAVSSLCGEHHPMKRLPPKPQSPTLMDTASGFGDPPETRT", "assay": "radioligand binding; saturation binding of [^3H]UR-MK300 at homogenates of HEK293T-hNTS2R cells"}, "[6]": {"molecular_target": "human neurotensin receptor type 1 (hNTS1R), endogenous in HT-29 colon carcinoma cells (human (endogenous in HT-29)) (UniProt P30989)", "sequence (P30989 whole entry)": "as the sequence (P30989 whole entry) above", "assay": "radioligand binding; saturation binding of [^3H]UR-MK300 at intact HT-29 cells, 23 ± 1 °C"}}, "note": "Several values for one entry are separate records, joined by “and”; a condition that tells them apart may be missing. Equal values may be shown once. Read-outs that look alike come from different tables or passages of the source."}
{"substance": "NT(8–13) 8-13 (from UniProt P30990)", "values": [{"measurement": "Ki", "setting": "NTS1R (Homo sapiens) [1]", "value": "1 nM and 0.24 nM"}, {"measurement": "Ki", "setting": "NTS1R (Homo sapiens) [2]", "value": 0.14, "unit": "nM"}]}
{"substance": "NTS1R (from UniProt P30989)", "values": [{"measurement": "Ki", "setting": "[3]", "value": 0.14, "unit": "nM"}, {"measurement": "Ki", "setting": "[4]", "value": "1 nM and 0.24 nM and 0.29 nM"}]}
{"substance": "[^3H]UR-MK300 (peptide)", "values": [{"measurement": "Kd", "setting": "[5]", "value": 0.75, "unit": "nM"}, {"measurement": "Kd", "setting": "[6]", "value": 0.41, "unit": "nM"}]}
